Results taken from the MegaScale stability set (Tsuboyama et al. 2023).

B1: HHH_rd2_0155 (parent)
chain: PPDDERKKAEKAARSGNEEKAREILERLGYSEDEARELAKRLR

Variants of: B1
Experiment: folding stability dG (cDNA display proteolysis); higher = more stable
Details: PBS, room temperature

Variant | folding stability dG [kcal/mol]
PPDDERKKAEKAARSGNEEKAREILERLGYSEFEARELAKRLR | 1.77
PPDDERKKAEKAARSGNEEKAREILERLGYSEEEARELAKRLR | 2.19
PPDDERKKAEKAARSGNEEKAREILERLGYSEGEARELAKRLR | 1.59
PPDDERKKAEKAARSGNEEKAREILERLGYSEHEARELAKRLR | 1.86
PPDDERKKAEKAARSGNEEKAREILERLGYSEAEARELAKRLR | 2.25
PPDDERKKAEKAARSGNEEKAREILERLYYSEDEARELAKRLR | 0.196
PPDDERKKAEKAARSGNEEKAREILERLHYSEDEARELAKRLR | 0.665
PPDDERKKAEKAARSGNEEKAREILERLQYSEDEARELAKRLR | 0.091
PPDDERKKAEKAARSGNEEKAREILERLEYSEDEARELAKRLR | 0.491
PPDDERKKAEKAARSGNEEKAREILERLMYSEDEARELAKRLR | 0.484
PPDDERKKAEKAARSGNEEKAREILERLRYSEDEARELAKRLR | 0.281
PPDDERKKAEKAARSGNEEKAREILERLLYSEDEARELAKRLR | -0.221
PPDDERKKAEKAARSGNEEKAREILERLAYSEDEARELAKRLR | 0.3
PPDDERKKAEKAARSGNEEKAREILERLWYSEDEARELAKRLR | 0.361
PPDDERKKAEKAARSGNEEKAREILERLPYSEDEARELAKRLR | -0.509
PPDDERKKAEKAARSGNEEKAREILERLTYSEDEARELAKRLR | 0.143
PPDDERKKAEKAARSGNEEKAREILERLFYSEDEARELAKRLR | 0.708
PPDDERKKAEKAARSGNEEKAREILERLIYSEDEARELAKRLR | 0.244
PPDDERKKAEKAARSGNEEKAREILERLSYSEDEARELAKRLR | 0.474
PPDDERKKAEKAARSGNEEKAREILERLKYSEDEARELAKRLR | 0.226

Variant | folding stability dG [kcal/mol]
PPDDERKKAEKAARSGNEEKAREILERLDYSEDEARELAKRLR | 0.445
PPDDERKKAEKAARSGNEEKAREILERLNYSEDEARELAKRLR | 0.552
PPDDERKKAEKAARSGNEEKAREILERLVYSEDEARELAKRLR | 0.455
PPDDERKKAEKAARSGNEEKAREILEILGYSEDEARELAKRLR | 1.28
PPDDERKKAEKAARSGNEEKAREILETLGYSEDEARELAKRLR | 1.47
PPDDERKKAEKAARSGNEEKAREILENLGYSEDEARELAKRLR | 1.7
PPDDERKKAEKAARSGNEEKAREILEHLGYSEDEARELAKRLR | 1.6
PPDDERKKAEKAARSGNEEKAREILESLGYSEDEARELAKRLR | 1.94
PPDDERKKAEKAARSGNEEKAREILEQLGYSEDEARELAKRLR | 1.89
PPDDERKKAEKAARSGNEEKAREILEVLGYSEDEARELAKRLR | 1.01
PPDDERKKAEKAARSGNEEKAREILEGLGYSEDEARELAKRLR | 1.89
PPDDERKKAEKAARSGNEEKAREILEKLGYSEDEARELAKRLR | 2.14
PPDDERKKAEKAARSGNEEKAREILEFLGYSEDEARELAKRLR | 1.39
PPDDERKKAEKAARSGNEEKAREILEWLGYSEDEARELAKRLR | 1.44
PPDDERKKAEKAARSGNEEKAREILELLGYSEDEARELAKRLR | 1.81
PPDDERKKAEKAARSGNEEKAREILEDLGYSEDEARELAKRLR | 0.997
PPDDERKKAEKAARSGNEEKAREILEPLGYSEDEARELAKRLR | 0.534
PPDDERKKAEKAARSGNEEKAREILEMLGYSEDEARELAKRLR | 1.7
PPDDERKKAEKAARSGNEEKAREILEELGYSEDEARELAKRLR | 1.1
PPDDERKKAEKAARSGNEEKAREILEALGYSEDEARELAKRLR | 2.07

Variant | folding stability dG [kcal/mol]
PPDDERKKAEKAARSGNEEKAREILEYLGYSEDEARELAKRLR | 1.41
PPDDERKKAEKAARSGNEEKAREILERLGYSADEARELAKRLR | 2.33
PPDDERKKAEKAARSGNEEKAREILERLGYSCDEARELAKRLR | 1.86
PPDDERKKAEKAARSGNEEKAREILERLGYSWDEARELAKRLR | 1.42
PPDDERKKAEKAARSGNEEKAREILERLGYSSDEARELAKRLR | 2.08
PPDDERKKAEKAARSGNEEKAREILERLGYSHDEARELAKRLR | 1.97
PPDDERKKAEKAARSGNEEKAREILERLGYSPDEARELAKRLR | 2.48
PPDDERKKAEKAARSGNEEKAREILERLGYSDDEARELAKRLR | 1.4
PPDDERKKAEKAARSGNEEKAREILERLGYSFDEARELAKRLR | 1.96
PPDDERKKAEKAARSGNEEKAREILERLGYSTDEARELAKRLR | 1.93
PPDDERKKAEKAARSGNEEKAREILERLGYSIDEARELAKRLR | 1.88
PPDDERKKAEKAARSGNEEKAREILERLGYSNDEARELAKRLR | 1.51
PPDDERKKAEKAARSGNEEKAREILERLGYSMDEARELAKRLR | 1.78
PPDDERKKAEKAARSGNEEKAREILERLGYSKDEARELAKRLR | 2.21
PPDDERKKAEKAARSGNEEKAREILERLGYSGDEARELAKRLR | 1.49
PPDDERKKAEKAARSGNEEKAREILERLGYSQDEARELAKRLR | 1.99
PPDDERKKAEKAARSGNEEKAREILERLGYSLDEARELAKRLR | 1.66
PPDDERKKAEKAARSGNEEKAREILERLGYSRDEARELAKRLR | 1.96
PPDDERKKAEKAARSGNEEKAREILERLGYSVDEARELAKRLR | 2
